Results taken from publication PMC2821881.

Target: phosphorylated microtubule-associated protein (pMAP) labelled by the 12E8 antibody (chick (endogenous in primary chick neurons))
Experiment: FRET or BRET

“human cofilin-GFP (from UniProt P23528 1-166) (natural protein)” gave an FRET efficiency of 41%.
